# In patent US10213515B2, “Glycopeptide for contrast agent targeting cancer cells and contrast agent kit containing the same” (priority 2015, dated 2019):
# Tested on: HT-29 cells
# Assay: Cytotoxicity depending on the concentration of RR-S-Ac3ManNAz
# Format: cell-based, human
# Conditions: FIG. 4B
smiles,measurement,value
CC(=O)N[C@@H](CCCCN)C(=O)NCC(=O)N[C@@H](CCCNC(=N)N)C(=O)N[C@@H](CCCNC(=N)N)C(=O)Nc1ccc(COC(=O)OC[C@H]2OC(OC(C)=O)[C@@H](NC(=O)CN=[N+]=[N-])[C@@H](OC(C)=O)[C@@H]2OC(C)=O)cc1 (stereo partly shown) [RR-S-Ac3ManNAz],concentration up to which cytotoxicity was not observed,up to 20 μM
